The target in one data set is T1, GST-TAO (N1–304) (Pseudomonas putida, UniProt H8Y0R3).
T1 construct: N-terminal fragment residues 1-304, N-terminal GST tag kept, expressed in E. coli BL21(DE3), purified
T1 sequence (H8Y0R3 1-304): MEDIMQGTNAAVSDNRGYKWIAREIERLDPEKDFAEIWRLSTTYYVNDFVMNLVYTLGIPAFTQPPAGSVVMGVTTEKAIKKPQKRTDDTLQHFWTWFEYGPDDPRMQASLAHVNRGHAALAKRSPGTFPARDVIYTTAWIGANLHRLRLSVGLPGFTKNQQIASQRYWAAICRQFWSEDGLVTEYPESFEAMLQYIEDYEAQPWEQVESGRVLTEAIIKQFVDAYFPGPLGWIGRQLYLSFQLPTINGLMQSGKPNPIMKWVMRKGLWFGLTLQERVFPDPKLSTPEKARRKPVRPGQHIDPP
The data set can be described thus: ultrafiltration, fluorescence of unbound FAD. The settings on record: 3 µM FAD, 3 µM enzyme, 20 mM Tris-HCl pH 8.0, 25°C. It counts as binding. The text has this:
ultrafiltration, fluorescence of unbound FAD on GST-TAO (N1–304)

The target of data set [1] is T2, GST-TAO (wild-type, N1-348) (Pseudomonas putida, UniProt H8Y0R3).
T2 construct: full length TAO (348 aa, 39,328 Da calculated), N-terminal GST tag kept (pGEX-5X-1), expressed in E. coli BL21(DE3), GSTrap purified, 68 kDa on SDS-PAGE
T2 sequence (H8Y0R3 1-348): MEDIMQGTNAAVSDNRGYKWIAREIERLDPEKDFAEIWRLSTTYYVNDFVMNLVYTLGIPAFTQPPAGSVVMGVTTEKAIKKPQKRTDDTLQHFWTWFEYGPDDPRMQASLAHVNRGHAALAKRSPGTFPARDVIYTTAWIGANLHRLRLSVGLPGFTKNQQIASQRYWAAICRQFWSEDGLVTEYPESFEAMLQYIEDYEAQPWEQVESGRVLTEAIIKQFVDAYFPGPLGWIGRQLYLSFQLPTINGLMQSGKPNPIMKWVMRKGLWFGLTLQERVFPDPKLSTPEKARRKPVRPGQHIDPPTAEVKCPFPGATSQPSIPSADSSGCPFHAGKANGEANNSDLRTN
The data set can be described thus: ultrafiltration, fluorescence of unbound FAD. It counts as binding. The note with it: 3 µM FAD, 3 µM enzyme, 20 mM Tris-HCl pH 8.0, 25°C. From the text: ultrafiltration, fluorescence of unbound FAD on GST-TAO (wild-type, N1-348)

The target of the next data set is T3, GST-TAO (N1–261) (Pseudomonas putida, UniProt H8Y0R3).
T3 construct: N-terminal fragment residues 1-261, N-terminal GST tag kept, expressed in E. coli BL21(DE3), purified
T3 sequence (H8Y0R3 1-261): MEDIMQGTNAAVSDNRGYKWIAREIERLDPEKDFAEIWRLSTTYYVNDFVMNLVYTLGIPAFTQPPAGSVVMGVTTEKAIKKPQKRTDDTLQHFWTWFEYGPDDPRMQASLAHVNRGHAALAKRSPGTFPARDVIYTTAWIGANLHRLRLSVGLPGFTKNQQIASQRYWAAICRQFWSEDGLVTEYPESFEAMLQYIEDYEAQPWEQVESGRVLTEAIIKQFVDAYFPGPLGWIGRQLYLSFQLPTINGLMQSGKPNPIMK
The data set can be described thus: ultrafiltration, fluorescence of unbound FAD. It counts as binding. The note with it: 3 µM FAD, 3 µM enzyme, 20 mM Tris-HCl pH 8.0, 25°C. The text has this:
ultrafiltration, fluorescence of unbound FAD on GST-TAO (N1–261)

The next data set addresses T4, GST-TAO (N1–104) (Pseudomonas putida, UniProt H8Y0R3).
T4 construct: N-terminal fragment residues 1-104, N-terminal GST tag kept, expressed in E. coli BL21(DE3), purified
T4 sequence (H8Y0R3 1-104): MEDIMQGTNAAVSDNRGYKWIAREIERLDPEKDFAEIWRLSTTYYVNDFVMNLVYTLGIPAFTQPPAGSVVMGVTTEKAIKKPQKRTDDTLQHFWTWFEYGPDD
The data set can be described thus: ultrafiltration, fluorescence of unbound FAD. The settings on record: 3 µM FAD, 3 µM enzyme, 20 mM Tris-HCl pH 8.0, 25°C. It counts as binding. From the text: ultrafiltration, fluorescence of unbound FAD on GST-TAO (N1–104)

The next data set deals with T5, GST-TAO (N1–174) (Pseudomonas putida, UniProt H8Y0R3).
T5 construct: N-terminal fragment residues 1-174, N-terminal GST tag kept, expressed in E. coli BL21(DE3), purified
T5 sequence (H8Y0R3 1-174): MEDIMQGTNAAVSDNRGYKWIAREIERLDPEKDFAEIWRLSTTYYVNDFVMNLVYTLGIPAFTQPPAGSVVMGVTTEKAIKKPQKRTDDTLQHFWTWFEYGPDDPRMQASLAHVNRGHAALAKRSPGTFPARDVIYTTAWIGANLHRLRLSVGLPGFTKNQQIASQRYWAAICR
The data set can be described thus: ultrafiltration, fluorescence of unbound FAD. It counts as binding. The note with it: 3 µM FAD, 3 µM enzyme, 20 mM Tris-HCl pH 8.0, 25°C. The text has this: ultrafiltration, fluorescence of unbound FAD on GST-TAO (N1–174)

The target in the next data set is T6, GST-TAO (N175–348) (Pseudomonas putida, UniProt H8Y0R3).
T6 construct: C-terminal fragment residues 175-348 (plasmid pGEX-TAO (C174)), N-terminal GST tag kept, expressed in E. coli BL21(DE3), purified
T6 sequence (H8Y0R3 175-348): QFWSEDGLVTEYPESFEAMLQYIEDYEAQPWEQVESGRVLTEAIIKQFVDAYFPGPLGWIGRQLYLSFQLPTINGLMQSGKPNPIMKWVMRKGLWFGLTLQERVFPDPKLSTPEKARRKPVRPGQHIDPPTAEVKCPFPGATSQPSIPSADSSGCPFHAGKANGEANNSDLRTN
The data set can be described thus: ultrafiltration, fluorescence of unbound FAD. It counts as binding. The note with it: 3 µM FAD, 3 µM enzyme, 20 mM Tris-HCl pH 8.0, 25°C. The text has this:
ultrafiltration, fluorescence of unbound FAD on GST-TAO (N175–348)

Substrate in data set [2]: C/C=C/c1ccc(OC)c(OC)c1
The data set can be described thus: purified protein. The settings on record: 10 mM NADH, 15 µM FAD, pH 8.0, 30°C, formate dehydrogenase regeneration.

Substrate in data set [3]: CC=Cc1ccc(O)c(OC)c1
The data set can be described thus: purified protein. The settings on record: 10 mM NADH, 15 µM FAD, pH 8.0, 30°C, formate dehydrogenase regeneration.

Substrate in data set [4]: CC=Cc1ccc2c(c1)OCO2
The data set can be described thus: purified protein. The note with it: 10 mM NADH, 15 µM FAD, pH 8.0, 30°C, formate dehydrogenase regeneration.

Substrate in data set [5]: C/C=C/c1ccc(OC)cc1
The data set can be described thus: HPLC of p-anisaldehyde product, Michaelis-Menten nonlinear regression. It counts as biochemical, Pseudomonas putida. The settings on record: 10 mM NADH, 15 µM FAD, pH 8.0, 30°C, formate dehydrogenase regeneration, text b30 prints 64.70±2.40. From the text:
HPLC of p-anisaldehyde product, Michaelis-Menten nonlinear regression on GST-TAO (wild-type, N1-348)

From paper PMC3774712, “Characterization of a Self-sufficient Trans-Anethole Oxygenase from Pseudomonas putida JYR-1” (PLoS ONE, 2013) come the findings set out here.

Consider `Cc1cc2nc3c(=O)[nH]c(=O)nc-3n(C[C@H](O)[C@H](O)[C@H](O)COP(=O)(O)OP(=O)(O)OC[C@H]3O[C@@H](n4cnc5c(N)ncnc54)[C@H](O)[C@@H]3O)c2cc1C` [FAD], for which the “μM FAD/μM enzyme” value on GST-TAO (N1–304) amounted to 0.19±0.04 µM FAD/µM enzyme; in data set [1], 0.30±0.05 µM FAD/µM enzyme; on GST-TAO (N1–261) it was 0.15±0.04 µM FAD/µM enzyme; at GST-TAO (N1–104), 0.20±0.01 µM FAD/µM enzyme; at GST-TAO (N1–174), 0.18±0.03 µM FAD/µM enzyme; on GST-TAO (N175–348) it was 0.02±0.02 µM FAD/µM enzyme.

B1: GST-TAO (wild-type, N1-348) (Pseudomonas putida) (protein)
chain: T2 sequence (H8Y0R3 1-348)
notes: full length TAO (348 aa, 39,328 Da calculated), N-terminal GST tag kept (pGEX-5X-1), expressed in E. coli BL21(DE3), GSTrap purified, 68 kDa on SDS-PAGE
As usually defined, the Km is the substrate concentration at which the rate is half of its maximum. The Vmax is the top rate of the reaction or transport when substrate is in excess. Broadly, the kcat is the number of substrate molecules converted per active site and unit of time at saturation. Usually kcat/Km stands for the second-order rate constant that governs catalysis at low substrate concentration. Consider B1, for which, in the data set “purified protein [2]”, the Km was determined as 225.65 ± 22.27 µM, the Vmax stood at 0.06 µmol/min/mg, the kcat was found to be 0.13 s⁻¹ and the specificity constant (kcat/Km) worked out at 560 M⁻¹ s⁻¹. In the data set “purified protein [3]”, the Km was 2255.00 ± 346.48 µM, the maximal velocity (Vmax) is 0.52 µmol/min/mg, the turnover number (kcat) is 1.13 s⁻¹ and the catalytic efficiency (kcat/Km) came out at 500 M⁻¹ s⁻¹. Further, in “purified protein [4]”, the Km was 229.50 ± 32.10 µM, the Vmax is 0.26 µmol/min/mg, the kcat stood at 0.56 s⁻¹ and the catalytic efficiency (kcat/Km) was found to be 2450 M⁻¹ s⁻¹. In data set [5], the Michaelis-Menten constant (Km) amounted to 63.70 ± 2.40 µM, the maximum rate (Vmax) came out at 0.23 µmol/min/mg, the kcat is 0.49 s⁻¹ and the catalytic efficiency (kcat/Km) turned out to be 7690 M⁻¹ s⁻¹.
